From article PMC2947474 (Molecular Biology of the Cell, 2010)

Tests used:
V5-tagged Vps53 = biological target: T1, V5-tagged Vps53 (human, UniProt Q5VIR6 1-832); test: sedimentation velocity on glycerol gradient + SEC
T1 sequence: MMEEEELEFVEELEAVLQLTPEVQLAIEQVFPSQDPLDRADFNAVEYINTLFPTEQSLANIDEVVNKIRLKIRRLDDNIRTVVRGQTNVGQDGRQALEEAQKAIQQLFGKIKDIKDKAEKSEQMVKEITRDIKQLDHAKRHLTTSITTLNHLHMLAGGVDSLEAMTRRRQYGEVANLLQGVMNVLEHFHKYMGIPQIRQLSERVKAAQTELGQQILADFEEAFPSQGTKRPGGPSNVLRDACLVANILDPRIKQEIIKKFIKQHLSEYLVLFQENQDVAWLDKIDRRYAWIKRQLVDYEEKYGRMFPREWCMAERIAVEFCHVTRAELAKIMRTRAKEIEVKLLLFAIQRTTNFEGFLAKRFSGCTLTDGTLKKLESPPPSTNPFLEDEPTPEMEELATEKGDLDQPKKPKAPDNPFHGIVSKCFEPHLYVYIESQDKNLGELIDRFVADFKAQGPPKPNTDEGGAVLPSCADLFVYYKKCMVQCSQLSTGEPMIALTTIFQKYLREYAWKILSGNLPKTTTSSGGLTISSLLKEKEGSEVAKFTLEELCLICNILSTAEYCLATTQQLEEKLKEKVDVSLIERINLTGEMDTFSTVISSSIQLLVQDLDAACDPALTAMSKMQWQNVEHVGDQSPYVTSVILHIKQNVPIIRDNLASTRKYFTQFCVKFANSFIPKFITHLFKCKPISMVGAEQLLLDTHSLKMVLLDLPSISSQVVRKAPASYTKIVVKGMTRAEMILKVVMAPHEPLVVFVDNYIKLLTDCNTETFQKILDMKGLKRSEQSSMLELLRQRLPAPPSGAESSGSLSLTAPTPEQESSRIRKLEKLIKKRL

V5-tagged Vps54 = biological target: T2, V5-tagged Vps54 (human, UniProt Q9P1Q0 1-977); test: sedimentation velocity on glycerol gradient + SEC
T2 sequence: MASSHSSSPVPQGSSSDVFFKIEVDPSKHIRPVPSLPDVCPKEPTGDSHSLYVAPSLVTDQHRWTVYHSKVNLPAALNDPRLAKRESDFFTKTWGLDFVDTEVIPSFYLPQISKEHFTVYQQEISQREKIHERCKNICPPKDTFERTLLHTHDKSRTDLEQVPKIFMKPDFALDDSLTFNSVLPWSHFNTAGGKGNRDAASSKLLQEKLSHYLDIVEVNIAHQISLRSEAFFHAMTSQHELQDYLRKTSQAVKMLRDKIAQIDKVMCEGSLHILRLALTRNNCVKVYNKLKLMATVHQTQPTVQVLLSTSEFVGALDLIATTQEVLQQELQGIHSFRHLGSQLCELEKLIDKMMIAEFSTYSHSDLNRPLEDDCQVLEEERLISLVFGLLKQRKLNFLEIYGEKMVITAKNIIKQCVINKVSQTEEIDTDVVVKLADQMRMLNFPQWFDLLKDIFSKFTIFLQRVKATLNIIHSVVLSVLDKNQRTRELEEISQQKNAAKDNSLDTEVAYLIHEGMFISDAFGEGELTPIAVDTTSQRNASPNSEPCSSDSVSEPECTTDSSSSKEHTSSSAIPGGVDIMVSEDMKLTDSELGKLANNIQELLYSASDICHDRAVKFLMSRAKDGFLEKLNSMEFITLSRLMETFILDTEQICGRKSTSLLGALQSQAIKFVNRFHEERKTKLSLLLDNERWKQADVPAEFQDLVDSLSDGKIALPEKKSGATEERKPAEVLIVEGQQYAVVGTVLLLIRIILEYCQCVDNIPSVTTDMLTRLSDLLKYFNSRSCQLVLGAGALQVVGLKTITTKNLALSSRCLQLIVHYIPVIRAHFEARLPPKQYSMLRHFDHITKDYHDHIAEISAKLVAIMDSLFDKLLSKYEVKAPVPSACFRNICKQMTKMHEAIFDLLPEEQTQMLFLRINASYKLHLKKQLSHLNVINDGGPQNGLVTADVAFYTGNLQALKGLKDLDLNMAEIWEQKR

B1: V5-tagged human Ang2 (natural protein)
chain: MAAAAAAGPSPGSGPGDSPEGPEGEAPERRRKAHGMLKLYYGLSEGEAAGRPAGPDPLDPTDLNGAHFDPEVYLDKLRRECPLAQLMDSETDMVRQIRALDSDMQTLVYENYNKFISATDTIRKMKNDFRKMEDEMDRLATNMAVITDFSARISATLQDRHERITKLAGVHALLRKLQFLFELPSRLTKCVELGAYGQAVRYQGRAQAVLQQYQHLPSFRAIQDDCQVITARLAQQLRQRFREGGSGAPEQAECVELLLALGEPAEELCEEFLAHARGRLEKELRNLEAELGPSPPAPDVLEFTDHGGSGFVGGLCQVAAAYQELFAAQGPAGAEKLAAFARQLGSRYFALVERRLAQEQGGGDNSLLVRALDRFHRRLRAPGALLAAAGLADAATEIVERVARERLGHHLQGLRAAFLGCLTDVRQALAAPRVAGKEGPGLAELLANVASSILSHIKASLAAVHLFTAKEVSFSNKPYFRGEFCSQGVREGLIVGFVHSMCQTAQSFCDSPGEKGGATPPALLLLLSRLCLDYETATISYILTLTDEQFLVQDQFPVTPVSTLCAEARETARRLLTHYVKVQGLVISQMLRKSVETRDWLSTLEPRNVRAVMKRVVEDTTAIDVQVGLLYEEGVRKAQSSDSSKRTFSVYSSSRQQGRYAPSYTPSAPMDTNLLSNIQKLFSERIDVFSPVEFNKVSVLTGIIKISLKTLLECVRLRTFGRFGLQQVQVDCHFLQLYLWRFVADEELVHLLLDEVVASAALRCPDPVPMEPSVVEVICERG
V5-tagged Vps53
  stoichiometry N: 1
V5-tagged Vps54
  stoichiometry N: 1
